Data taken from KR20190132616A (dated 2019).

T1: 재조합 hAng-2 (C-His, R&D Systems) (human, UniProt O15123 19-496)
T1 construct: Bought protein; also called 인간 Ang-2 단백질
T1 sequence: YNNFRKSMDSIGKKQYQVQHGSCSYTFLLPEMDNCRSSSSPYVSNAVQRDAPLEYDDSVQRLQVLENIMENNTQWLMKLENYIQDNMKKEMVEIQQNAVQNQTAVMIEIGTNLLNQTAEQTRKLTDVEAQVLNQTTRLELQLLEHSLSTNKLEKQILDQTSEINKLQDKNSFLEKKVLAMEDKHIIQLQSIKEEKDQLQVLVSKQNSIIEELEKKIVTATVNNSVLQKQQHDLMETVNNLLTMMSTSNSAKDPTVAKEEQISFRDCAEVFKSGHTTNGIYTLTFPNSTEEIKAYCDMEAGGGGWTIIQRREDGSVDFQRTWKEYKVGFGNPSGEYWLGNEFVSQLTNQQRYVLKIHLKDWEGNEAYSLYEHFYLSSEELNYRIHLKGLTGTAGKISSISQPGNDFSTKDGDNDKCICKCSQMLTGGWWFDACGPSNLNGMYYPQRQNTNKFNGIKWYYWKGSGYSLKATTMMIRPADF

B1: Ang2 단백질(R&D systems) (ligand)
chain: YNNFRKSMDSIGKKQYQVQHGSCSYTFLLPEMDNCRSSSSPYVSNAVQRDAPLEYDDSVQRLQVLENIMENNTQWLMKLENYIQDNMKKEMVEIQQNAVQNQTAVMIEIGTNLLNQTAEQTRKLTDVEAQVLNQTTRLELQLLEHSLSTNKLEKQILDQTSEINKLQDKNSFLEKKVLAMEDKHIIQLQSIKEEKDQLQVLVSKQNSIIEELEKKIVTATVNNSVLQKQQHDLMETVNNLLTMMSTSNSAKDPTVAKEEQISFRDCAEVFKSGHTTNGIYTLTFPNSTEEIKAYCDMEAGGGGWTIIQRREDGSVDFQRTWKEYKVGFGNPSGEYWLGNEFVSQLTNQQRYVLKIHLKDWEGNEAYSLYEHFYLSSEELNYRIHLKGLTGTAGKISSISQPGNDFSTKDGDNDKCICKCSQMLTGGWWFDACGPSNLNGMYYPQRQNTNKFNGIKWYYWKGSGYSLKATTMMIRPADF
notes: also called 인간 Ang2 단백질 (R&D systems; 623-AN-025/CF)
B2: SAIT-ANG2-AB-m10D6 (antibody, V domains shown)
VH: DVQLQESGPGLVKPSQSLSLTCTVTGYSITSDYAWNWIRQFPGNKLEWMGYINYSGNTDYNPSLKSRSSITRDTSKNQFFLQLNSVTTGDTATYYCARGNFEGAMDYWGQGTSVTVSS
VL: SIVMTQTPKFLLVSAGDRVTITCKASQSVSNDVAWYQQKPGQSPKLLIYYASNRYPGVPDRFTGSGYGTDFTFTISTVQAEDLAVYFCQQDYSSPWTFGGGTKLEIK
notes: also called 10D6 항체; 10D6 anti-Ang2 항체

Columns and labels:
hTie2-Fc (R&D Systems) = target: T2, hTie2-Fc (R&D Systems) (human, UniProt Q02763 23-745); assay: complex ELISA: Tie2-Fc coated, Ang2 0.25 ug/ml and 10D6 2 ug/ml added, anti-mouse IgG-HRP
T2 construct: Bought fusion protein, coated on the plate; also called hTie-2/Fc 융합 단백질; not shown: Fc of human IgG1

[1] = target: Mutant Ang2 A449 (alanine), FLAG-tagged (human) (UniProt O15123); assay: ELISA, antibody coated (1000nM), FLAG-Ang2 mutant 250ng, anti-FLAG-HRP, OD450 against native Ang2
[2] = target: Mutant Ang2 D448 (alanine), FLAG-tagged (human) (UniProt O15123); assay: as above
[3] = target: Mutant Ang2 F469 (alanine), FLAG-tagged (human) (UniProt O15123); assay: as above
[4] = target: Mutant Ang2 I434 (alanine), FLAG-tagged (human) (UniProt O15123); assay: as above
[5] = target: Mutant Ang2 K468 (alanine), FLAG-tagged (human) (UniProt O15123); assay: as above
[6] = target: Mutant Ang2 N421 (alanine), FLAG-tagged (human) (UniProt O15123); assay: as above
[7] = target: Mutant Ang2 N467 (alanine), FLAG-tagged (human) (UniProt O15123); assay: as above
[8] = target: Mutant Ang2 P419 (alanine), FLAG-tagged (human) (UniProt O15123); assay: as above
[9] = target: Mutant Ang2 P452 (alanine), FLAG-tagged (human) (UniProt O15123); assay: as above
[10] = target: Mutant Ang2 Q418 (alanine), FLAG-tagged (human) (UniProt O15123); assay: as above
[11] = target: Mutant Ang2 S417 (alanine), FLAG-tagged (human) (UniProt O15123); assay: as above
[12] = target: Mutant Ang2 Y460 (alanine), FLAG-tagged (human) (UniProt O15123); assay: as above
[13] = target: T1, 재조합 hAng-2 (C-His, R&D Systems); assay: SPR, BIAcore T100; hAng-2 (C-His) captured by anti-His antibody on CM5 chip, antibody flowed from 100 nM in 2-fold dilutions

T2 sequence (Q02763 23-745 limits assumed): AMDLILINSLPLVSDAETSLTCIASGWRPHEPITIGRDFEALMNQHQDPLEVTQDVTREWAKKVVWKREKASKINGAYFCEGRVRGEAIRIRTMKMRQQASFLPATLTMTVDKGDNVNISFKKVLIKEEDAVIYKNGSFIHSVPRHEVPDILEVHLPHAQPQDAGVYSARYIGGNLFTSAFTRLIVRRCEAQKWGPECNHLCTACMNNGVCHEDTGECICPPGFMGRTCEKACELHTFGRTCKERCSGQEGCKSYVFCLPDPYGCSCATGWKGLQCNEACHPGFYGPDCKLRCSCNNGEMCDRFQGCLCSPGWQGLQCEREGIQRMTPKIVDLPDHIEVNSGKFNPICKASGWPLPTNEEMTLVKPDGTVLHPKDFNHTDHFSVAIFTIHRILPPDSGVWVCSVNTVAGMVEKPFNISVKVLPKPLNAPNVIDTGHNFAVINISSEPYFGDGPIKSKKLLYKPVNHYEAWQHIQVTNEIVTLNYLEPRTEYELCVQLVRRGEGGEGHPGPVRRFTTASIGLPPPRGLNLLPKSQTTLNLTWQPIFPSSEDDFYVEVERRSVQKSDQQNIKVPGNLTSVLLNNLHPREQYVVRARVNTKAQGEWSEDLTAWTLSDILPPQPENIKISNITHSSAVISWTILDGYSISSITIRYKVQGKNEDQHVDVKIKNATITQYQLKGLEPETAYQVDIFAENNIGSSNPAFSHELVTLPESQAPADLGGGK

| Binder | binding result (hTie2-Fc (R&D Systems)) | native Ang2와의 결합력에 대한 Mutant Ang2 와의 결합력(%) [1] | native Ang2와의 결합력에 대한 Mutant Ang2 와의 결합력(%) [2] | native Ang2와의 결합력에 대한 Mutant Ang2 와의 결합력(%) [3] | native Ang2와의 결합력에 대한 Mutant Ang2 와의 결합력(%) [4] | native Ang2와의 결합력에 대한 Mutant Ang2 와의 결합력(%) [5] | native Ang2와의 결합력에 대한 Mutant Ang2 와의 결합력(%) [6] | native Ang2와의 결합력에 대한 Mutant Ang2 와의 결합력(%) [7] | native Ang2와의 결합력에 대한 Mutant Ang2 와의 결합력(%) [8] | native Ang2와의 결합력에 대한 Mutant Ang2 와의 결합력(%) [9] | native Ang2와의 결합력에 대한 Mutant Ang2 와의 결합력(%) [10] | native Ang2와의 결합력에 대한 Mutant Ang2 와의 결합력(%) [11] | native Ang2와의 결합력에 대한 Mutant Ang2 와의 결합력(%) [12] | Kd [13] |
| --- | --- | --- | --- | --- | --- | --- | --- | --- | --- | --- | --- | --- | --- | --- |
| B1 | binds | – | – | – | – | – | – | – | – | – | – | – | – | – |
| B2 | – | 97.9% | 105% | 109% | 109% | 110% | 109% | 107% | 41.1% | 102% | 38.9% | 101% | 103% | 8 nM |
